# Results published in patent US20250011456A1, “ANTIBODIES AGAINST CD14 AND USES THEREOF” (Villanelle Life Science Inc, priority 2023, published 2025).
# Values joined by “and” are separate entries in the source; they are usually repeats but may differ in a detail not shown here. Equal values may be shown once.
# T1: recombinant human CD14 (B294801, histidine tagged) (Homo sapiens, UniProt P08571)
# T1 construct: His; purchased Shanghai BaiYing Biotechnology Co., Ltd B294801 (Batch number 20200518A22)
# T1 sequence (P08571 20-345): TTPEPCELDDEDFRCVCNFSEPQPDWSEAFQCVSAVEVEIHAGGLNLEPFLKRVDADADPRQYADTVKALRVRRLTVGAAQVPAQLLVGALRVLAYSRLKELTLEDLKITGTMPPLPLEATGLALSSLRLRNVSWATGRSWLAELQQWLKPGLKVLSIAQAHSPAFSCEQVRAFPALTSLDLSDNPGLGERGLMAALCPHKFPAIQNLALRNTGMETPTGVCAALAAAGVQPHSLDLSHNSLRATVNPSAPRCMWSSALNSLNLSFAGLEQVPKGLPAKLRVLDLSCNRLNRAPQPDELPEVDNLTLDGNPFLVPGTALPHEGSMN
# Columns and labels:
# [1] = biological target: T1, recombinant human CD14 (B294801, histidine tagged); experiment: Biacore 8K kinetic and affinity test of humanized antibodies (Example 8); type: binding; settings: Biacore 8K, analyte B294801 0.78125-25 nM, capture 1 μg/mL
# Method: Experimental reagents and consumables included Protein A chip (Cytiva, 29127556). Main instruments and equipment included Biacore 8K (Cytiva), shaker (Taicang Huamei), ELISA system (Molecular Devices), centrifuge (Baiyang), ultrapure water system (Millipore), and thermostatic incubator (BLUE PARD).
# The antigen used for the binding affinity measurements is B294801. This antigen is a recombinant human CD14 antigen that is histidine tagged and has a molecular weight of 36 kDa. B294801 was purchased from Shanghai BaiYing Biotechnology Co., Ltd (name: Recombinant Human CD14/His Protein; Batch number 20200518A22). D6DD3D001 is a mouse antibody, and D6DD3D002-D6DD3D0016 are humanized antibodies. The antibodies are recombinant, human (hFc Tag). Selected parameters of the experimental samples are shown in Table 8-1, with MW referring to molecular weight in kiloDaltons (kDa).
# The Biacore 8K platform was used to test the kinetic and affinity properties of the antibody. The operation was carried out according to the system instructions and indications.
# The equilibrium dissociation constant (KD) reflects the affinity of the antibody to the target, with a smaller value indicating a stronger affinity. KD (in units of molarity) is determined by the ratio of the dissociation rate constant (koff) and the association rate constant (kon), that is, KD=Koff/kon.
# 15 humanized antibodies (numbered D6DD3D002-D6DD3D0016) and 1 mouse antibody (number D6DD3D001) were tested. For the experiments, the analyte solution comprises the B294801 antigen with an analyte concentration of 0.78125 nM, 1.5625 nM, 3.125 nM, 6.25 nM, 12.5 nM, and 25 nM. The capture concentration was 1 μg/mL. In Table 8-3, the change factor is the ratio of the equilibrium dissociation constant KD of the humanized to mouse antibody, and reflects the change in affinity after humanization.
# [2] = tested on: CD14 positive recurrent bladder cancer patient-derived xenograft (PDX); experiment: Amount of anti-CD14-IgG1 (5-40 mg/kg) for tumor treatment in PDX mice (tumor length, width, volume, tumor weight; Example 7); type: in vivo; settings: for Tumor Length / Tumor Volume / Tumor Width: per mouse 1-5; for Tumor weight after 28 days: individual mice 1-5
# Excerpt: After removing the primary tumor tissue from the patient, the tissue was temporarily placed in a complete culture medium containing RPMI1640 (Gibco Roswell Park Memorial Institute 1640 Media)+PS (penicillin and streptomycin)+10% FBS (Fetal bovine serum). The tissue was then transported to a sterile operating room within an SPF-grade (Specific Pathogen Free) animal facility. The tumor tissue was cut to an appropriate size (5 millimeters (mm) in diameter). Severely immunodeficient NSG (NOD scid gamma mouse) mice were anesthetized using an isoflurane respirator. The tumor was transplanted subcutaneously into the right rib area through surgery. When the tumor volume reached 1 cm^3, it was passaged following the same procedure, and after expanding for three generations, the tumor became stable for use in formal experiments. During the experiment, passaging and expansion were performed as needed. When the tumor volume reached 100 mm^3, the mice were divided into groups according to the experimental requirements and treated with drugs.
# To evaluate concentrations for the anti-CD14-IgG1 antibody, PDX mice were treated with five different concentrations of the IgG1 antibody over a period of 28 days. For these experiments, drug administration on the PDX mice was performed intravenously on alternating 4 days and 3 days.
# The five different concentrations of the anti-CD14-IgG1 antibody tested include 5 mg/kg, 10 mg/kg, 15 mg/kg, 25 mg/kg, and 40 mg/kg. A control regimen was utilized as a comparative example. […] The non-specific IgG1 has no binding affinity to antigen. […] Tumor weight and tumor volume were calculated as described above.
# [3] = Day 4, IgG1 (10 mg/kg), 10 mg/kg
# [4] = Day 11, IgG1 (5 mg/kg), 5 mg/kg
# [5] = Day 14, IgG1 (5 mg/kg), 5 mg/kg
# [6] = Day 18, IgG1 (5 mg/kg), 5 mg/kg
# [7] = Day 21, IgG1 (5 mg/kg), 5 mg/kg
# [8] = Day 25, IgG1 (5 mg/kg), 5 mg/kg
# [9] = Day 28, IgG1 (5 mg/kg), 5 mg/kg
molecule,measurement,setting,value
"D6DD3D001: mouse-derived anti-CD14 IgG1 antibody; VH SEQ ID NO: 1, VL SEQ ID NO: 3, heavy chain SEQ ID NO: 2, light chain SEQ ID NO: 4 (antibody) heavy: DVQLQQSGPGLVKPSQSLSLTCTVTGYSITSDSAWNWIRQFPGNRLEWMGYISYSGSTSYNPSLKSRISITRDTSKNQFFLQLNSVTTEDTATYYCVRGLRFAYWGQGTLVTVSSPSVFLFPPKPKDTLMISRTPEVTCVVVDVSHEDPEVKFNWYVDGVEVHNAKTKPREEQYNSTYRVVSVLTVLHQDWLNGKEYKCKVSNKALPAPIEKTISKAKGQPREPQVYTLPPSREEMTKNQVSLTCLVKGFYPSDIAVEWESNGQPENNYKTTPPVLDSDGSFFLYSKLTVDKSRWQQGNVFSCSVMHEALHNHYTQKSLSLSPGK light: DIVLTQSPASLAVSLGQRATISCRASESVDSYVNSFLHWYQQKPGQPPKLLIYRASNLQSGIPARFSGSGSRTDFTLTINPVEADDVATYYCQQSNEDPYTFGGGTKLEIKRTVAAPSVFIFPPSDEQLKSGTASVVCLLNNFYPREAKVQWKVDNALQSGNSQESVTEQDSKDSTYSLSSTLTLSKADYEKHKVYACEVTHQGLSSPVTKSFNRGEC",koff (1:1 binding),[1],0.000858 s⁻¹
same,kon (1:1 binding),[1],1.77e+06 M⁻¹ s⁻¹
same,Tumor Length,"[2]; Day 0, IgG1 (5 mg/kg), 5 mg/kg",4.41 mm and 4.54 mm and 4.71 mm and 5.12 mm and 4.93 mm
same,Tumor Volume,"[2]; Day 0, IgG1 (5 mg/kg), 5 mg/kg",20.01 mm^3 and 19.41 mm^3 and 19.14 mm^3 and 19.44 mm^3 and 19.33 mm^3
same,Tumor Volume,"[2]; Day 0, IgG1 (10 mg/kg), 10 mg/kg",59.69 mm^3 and 68.55 mm^3 and 77.15 mm^3 and 79.05 mm^3 and 79.08 mm^3
same,Tumor Length,"[2]; Day 4, IgG1 (5 mg/kg), 5 mg/kg",5.58 mm and 6.11 mm and 6.53 mm and 5.89 mm and 6.64 mm
same,Tumor Volume,"[2]; Day 4, IgG1 (5 mg/kg), 5 mg/kg",79.57 mm^3 and 87.80 mm^3 and 92.05 mm^3 and 94.26 mm^3 and 105.50 mm^3
same,Tumor Width,"[2]; Day 4, IgG1 (5 mg/kg), 5 mg/kg",5.22 mm and 5.24 mm and 5.19 mm and 5.53 mm and 5.51 mm
same,Tumor Length,[2]; [3],5.95 mm and 6.55 mm
same,Tumor Volume,[2]; [3],81.63 mm^3 and 82.98 mm^3 and 85.32 mm^3 and 88.96 mm^3 and 108.37 mm^3
same,Tumor Width,[2]; [3],5.12 mm
same,Tumor Volume,"[2]; Day 4, IgG1 (15 mg/kg), 15 mg/kg",76.19 mm^3 and 77.75 mm^3 and 81.95 mm^3 and 87.59 mm^3 and 90.56 mm^3
same,Tumor Length,"[2]; Day 7, IgG1 (5 mg/kg), 5 mg/kg",7.84 mm and 6.11 mm and 6.37 mm and 6.61 mm and 6.56 mm
same,Tumor Volume,"[2]; Day 7, IgG1 (5 mg/kg), 5 mg/kg",103.81 mm^3 and 104.99 mm^3 and 109.45 mm^3 and 121.23 mm^3 and 132.82 mm^3
same,Tumor Width,"[2]; Day 7, IgG1 (5 mg/kg), 5 mg/kg",5.03 mm and 5.73 mm (2×) and 5.92 mm and 6.22 mm
same,Tumor Volume,"[2]; Day 7, IgG1 (10 mg/kg), 10 mg/kg",112.99 mm^3 and 113.39 mm^3 and 121.55 mm^3 and 122.33 mm^3 and 133.44 mm^3
same,Tumor Volume,"[2]; Day 7, IgG1 (15 mg/kg), 15 mg/kg",99.31 mm^3 and 113.51 mm^3 and 118.44 mm^3 and 127.47 mm^3 and 152.88 mm^3
same,Tumor Length,[2]; [4],6.48 mm and 6.63 mm and 6.74 mm and 6.44 mm and 7.52 mm
same,Tumor Volume,[2]; [4],92.40 mm^3 and 103.06 mm^3 and 128.68 mm^3 and 130.81 mm^3 and 158.69 mm^3
same,Tumor Width,[2]; [4],5.22 mm and 5.45 mm and 6.04 mm and 6.23 mm and 6.35 mm
same,Tumor Volume,"[2]; Day 11, IgG1 (10 mg/kg), 10 mg/kg",100.68 mm^3 and 105.14 mm^3 and 112.60 mm^3 and 143.90 mm^3 and 170.28 mm^3
same,Tumor Length,[2]; [5],7.14 mm and 6.88 mm and 7.56 mm and 7.02 mm and 8.46 mm
same,Tumor Volume,[2]; [5],128.31 mm^3 and 135.30 mm^3 and 170.26 mm^3 and 171.88 mm^3 and 184.76 mm^3
same,Tumor Width,[2]; [5],5.86 mm and 6.13 mm and 6.56 mm and 6.84 mm and 6.46 mm
same,Tumor Volume,"[2]; Day 14, IgG1 (10 mg/kg), 10 mg/kg",109.71 mm^3 and 110.99 mm^3 and 134.85 mm^3 and 153.36 mm^3 and 165.63 mm^3
same,Tumor Length,[2]; [6],7.91 mm and 7.24 mm and 8.45 mm and 8.16 mm and 8.08 mm
same,Tumor Volume,[2]; [6],151.02 mm^3 and 169.58 mm^3 and 185.12 mm^3 and 218.31 mm^3 and 231.55 mm^3
same,Tumor Width,[2]; [6],6.04 mm and 6.69 mm and 6.47 mm and 7.15 mm and 7.4 mm
same,Tumor Volume,"[2]; Day 18, IgG1 (10 mg/kg), 10 mg/kg",132.18 mm^3 and 141.82 mm^3 and 163.82 mm^3 and 192.29 mm^3 and 204.50 mm^3
same,Tumor Length,[2]; [7],8.92 mm and 8.5 mm and 8.53 mm and 8.19 mm and 8.49 mm
same,Tumor Volume,[2]; [7],191.80 mm^3 and 234.46 mm^3 and 261.25 mm^3 and 271.57 mm^3 and 289.36 mm^3
same,Tumor Width,[2]; [7],6.41 mm and 7.26 mm and 7.65 mm and 7.96 mm and 8.07 mm
same,Tumor Volume,"[2]; Day 21, IgG1 (10 mg/kg), 10 mg/kg",218.53 mm^3 and 193.54 mm^3 and 221.69 mm^3 and 223.66 mm^3 and 268.23 mm^3
same,Tumor Length,[2]; [8],8.73 mm and 9.67 mm and 9.91 mm and 9.97 mm and 9.69 mm
same,Tumor Volume,[2]; [8],234.87 mm^3 and 334.49 mm^3 and 386.25 mm^3 and 465.95 mm^3 and 468.33 mm^3
same,Tumor Width,[2]; [8],7.17 mm and 8.13 mm and 8.63 mm and 9.45 mm and 9.61 mm
same,Tumor Volume,"[2]; Day 25, IgG1 (10 mg/kg), 10 mg/kg",227.79 mm^3 and 282.78 mm^3 and 300.56 mm^3 and 329.18 mm^3 and 336.90 mm^3
same,Tumor Length,[2]; [9],9.76 mm and 9.79 mm and 10.39 mm and 11.02 mm and 10.87 mm
same,Tumor Volume,[2]; [9],333.47 mm^3 and 459.47 mm^3 and 555.77 mm^3 and 603.55 mm^3 and 637.97 mm^3
same,Tumor Width,[2]; [9],8.08 mm and 9.47 mm and 10.11 mm and 10.23 mm and 10.59 mm
same,Tumor Volume,"[2]; Day 28, IgG1 (10 mg/kg), 10 mg/kg",231.00 mm^3 and 313.49 mm^3 and 338.93 mm^3 and 402.03 mm^3 and 419.55 mm^3
same,Tumor weight after 28 days,"[2]; IgG1 5 mg/kg, 5 mg/kg",0.486 grams and 0.535 grams and 0.567 grams and 0.502 grams and 0.625 grams
same,Tumor weight after 28 days,"[2]; IgG1 10 mg/kg, 10 mg/kg",0.341 grams and 0.302 grams and 0.267 grams and 0.285 grams and 0.386 grams
same,Tumor weight after 28 days,"[2]; IgG1 15 mg/kg, 15 mg/kg",0.215 grams and 0.202 grams and 0.246 grams and 0.253 grams and 0.291 grams
same,Tumor weight after 28 days,"[2]; IgG1 25 mg/kg, 25 mg/kg",0.158 grams and 0.184 grams and 0.191 grams and 0.204 grams and 0.211 grams
same,Tumor weight after 28 days,"[2]; IgG1 40 mg/kg, 40 mg/kg",0.128 grams and 0.195 grams and 0.199 grams and 0.205 grams and 0.206 grams
same,tumor inhibition level versus dosage,"[2]; anti-CD14-IgG1 5 mg/kg to 15 mg/kg, 28 days",significantly increase with the dosage
same,tumor inhibition rate versus dosage,"[2]; anti-CD14-IgG1 15 mg/kg to 40 mg/kg, 28 days",tumor inhibition rate remaining the same across the three groups
